Results from patent US20250257368A1 (FLAGSHIP PIONEERING INNOVATIONS V, published 2025).

Target: the molecule itself
Assay: self-assembly into virus-like particles, negative staining electron microscopy

B1: Ring2 ORF1 protein expressed as a full-length protein in insect cells (other)
chain: MPYYYRRRRYNYRRPRWYGRGWIRRPFRRRFRRKRRVRPTYTTIPLKQWQPPYKRTCYIKGQDCLIYYSNLRLGMNSTMYEKSIVPVHWPGGGSFSVSMLTLDALYDIHKLCRNWWTSTNQDLPLVRYKGCKITFYQSTFTDYIVRIHTELPANSNKLTYPNTHPLMMMMSKYKHIIPSRQTRRKKKPYTKIFVKPPPQFENKWYFATDLYKIPLLQIHCTACNLQNPFVKPDKLSNNVTLWSLNTISIQNRNMSVDQGQSWPFKILGTQSFYFYFYTGANLPGDTTQIPVADLLPLTNPRINRPGQSLNEAKITDHITFTEYKNKFTNYWGNPFNKHIQEHLDMILYSLKSPEAIKNEWTTENMKWNQLNNAGTMALTPFNEPIFTQIQYNPDRDTGEDTQLYLLSNATGTGWDPPGIPELILEGFPLWLIYWGFADFQKNLKKVTNIDTNYMLVAKTKFTQKPGTFYLVILNDTFVEGNSPYEKQPLPEDNIKWYPQVQYQLEAQNKLLQTGPFTPNIQGQLSDNISMFYKFYFKWGGSPPKAINVENPAHQIQYPIPRNEHETTSLQSPGEAPESILYSFDYRHGNYTTTALSRISQDWALKDTVSKITEPDRQQLLKQALECLQISEETQEKKEKEVQQLISNLRQQQQLYRERIISLLKDQ
notes: also called Anellovirus ORF1 protein
B1: binds.
